Biological target: L-DOPA dioxygenase from Streptomyces sclerotialus (SsDDO) (Streptomyces sclerotialus)
Test: crystal structure

With “L-DOPA dioxygenase from Streptomyces sclerotialus (SsDDO) (enzyme)” the stoichiometry N was 2.

From article PMC6930364
